Data on 1 substance can be found in publication PMC6618058.

In test [1] the target is HLA-A*02:01 with the MART-1(27-35) nonapeptide …, not tagged.
The target in test [2] is Biotinylated HLA-A*02:01 with the MART-1(26-35) decapeptide ….

On to MEL5 TCR, for which, in test [1], the MIP‐1β secretion (ELISA) by CD8+ T cells transduced with the MEL5 TCR in response to titrated … presented by T2 cells; sensitivity against that of DMF4 TCR-transduced T cells was 100 fold. For the same substance, the dH in test [2] was -14 kcal/mol.
